Laboratory results reported in US11413334B2, “Lysin polypeptides active against Gram-negative bacteria” (CONTRAFECT CORPORATION, priority 2015, dated 2022).
“Also recorded” adds a separate entry of the source.

B1: GN14: 189 amino acid lysin polypeptide, putative endolysin of Pseudomonas phage Lu11 (protein)
chain: MNNELPWVAEARKYIGLREDTSKTSHNPKLLAMLDRMGEFSNESRAWWHDDETPWCGLFVGYCLGVAGRYVVREWYRARAWEAPQLTKLDRPAYGALVTFTRSGGGHVGFIVGKDARGNLMVLGGNQSNAVSIAPFAVSRVTGYFWPSFWRNKTAVKSVPFEERYSLPLLKSNGELSTNEA
modifications: Pseudomonas phage Lu11
B2: GN2: 147 amino acid lysin polypeptide, lysozyme class, from marine metagenome (protein)
chain: MKISLEGLSLIKKFEGCKLEAYKCSAGVWTIGYGHTAGVKEGDVCTQEEAEKLLRGDIFKFEEYVQDSVKVDLDQSQFDALVAWTFNLGPGNLRSSTMLKKLNNGEYESVPFEMRRWNKAGGKTLDGLIRRRQAESLLFESKEWHQV
modifications: hypothetical protein GOS_817346 [marine metagenome] (GenBank EDG23390.1)
B3: GN4: 144 amino acid lysin polypeptide, putative endolysin of Pseudomonas phage PAJU2 (protein)
chain: MRTSQRGIDLIKSFEGLRLSAYQDSVGVWTIGYGTTRGVTRYMTITVEQAERMLSNDIQRFEPELDRLAKVPLNQNQWDALMSFVYNLGAANLASSTLLKLLNKGDYQGAADQFPRWVNAGGKRLDGLVKRRAAERALFLEPLS
modifications: Pseudomonas phage PAJU2
B4: GN43: 439 amino acid lysin polypeptide, peptidase M23 of Pseudomonas (protein, listed as Pseudomonas sp.)
chain: MKRTTLNLELESNTDRLLQEKDDLLPQSVTNSSDEGTPFAQVEGASDDNTAEQDSDKPGASVADADTKPVDPEWKTITVASGDTLSTVFTKAGLSTSAMHDMLTSSKDAKRFTHLKVGQEVKLKLDPKGELQALRVKQSELETIGLDKTDKGYSFKREKAQIDLHTAYAHGRITSSLFVAGRNAGLPYNLVTSLSNIFGYDIDFALDLREGDEFDVIYEQHKVNGKQVATGNILAARFVNRGKTYTAVRYTNKQGNTSYYRADGSSMRKAFIRTPVDFARISSRFSLGRRHPILNKIRAHKGVDYAAPIGTPIKATGDGKILEAGRKGGYGNAVVIQHGQRYRTIYGHMSRFAKGIRAGTSVKQGQIIGYVGMTGLATGPHLHYEFQINGRHVDPLSAKLPMADPLGGADRKRFMAQTQPMIARMDQEKKTLLALNKQR
B5: GN37: 126 amino acid lysin polypeptide, peptidase M15 from Micavibrio aeruginosavorus (protein, listed as Micavibrio aeruginosavorus)
chain: MTYTLSKRSLDNLKGVHPDLVAVVHRAIQLTPVDFAVIEGLRSVSRQKELVAAGASKTMNSRHLTGHAVDLAAYVNGIRWDWPLYDAIAVAVKAAAKELGVAIVWGGDWTTFKDGPHFELDRSKYR

Legend:
[1] = test system: PAO1 cells; experiment: Killing assay of GN4-derived peptides in Tris-HCl buffer; settings: FIG. 6; compared with parent GN4 fragment
[2] = test system: P. aeruginosa strain PAO1; experiment: Viability (CFU) assay of GN lysins in Tris-HCl buffer; settings: for antibacterial activity compared with EDTA and PMB / antibacterial activity compared with HuLYS or novobiocin: lysin 25 mcg/ml, 1 hour, 37° C., 20 mM Tris-HCl pH 7.2, FIG. 4; for antibacterial activity compared with EDTA and PMB: EDTA 1 mM, PMB 25 mcg/ml; for antibacterial activity compared with HuLYS or novobiocin: HuLYZ 25 mcg/ml, novobiocin 5 mcg/ml
[3] = test system: P. aeruginosa strain PAO1; format: cell-based, Pseudomonas aeruginosa; settings: E. coli clones of five Micavibrio aeruginosavorus hydrolases screened

Row | Molecule | antibacterial activity compared with EDTA and PMB [2] | antibacterial activity compared with HuLYS or novobiocin [2] | also measured
1 | FGN4-2: FGN4-1 with the 11 C-terminal residues removed, 31 amino acids (NKGDYQGAADQFPRWVNAGGKRLDGLVKRRA; Pseudomonas phage PAJU2) |  |  | effect of the sequence modification on activity of the parent fragment [1]: did reduce activity
2 | FGN4-4: FGN4-1 with a single C-terminal cysteine added (NKGDYQGAADQFPRWVNAGGKRLDGLVKRRAAERALFLEPLSC; artificially-created modified fragment of GN4 (SEQ ID NO 3)) |  |  | effect of the sequence modification on activity of the parent fragment [1]: enhanced the activity of the FGN4-1
3 | B1 | equivalent antibacterial activity; also recorded: stronger or equivalent antibacterial activity | greater antibacterial activity | 
4 | B2 |  | greater antibacterial activity | 
5 | B3 | equivalent antibacterial activity; also recorded: stronger or equivalent antibacterial activity | greater antibacterial activity | 
6 | B4 |  | greater antibacterial activity | 
7 | B5 | equivalent antibacterial activity; also recorded: stronger or equivalent antibacterial activity | greater antibacterial activity | decrease in bacterial viability ([2]; after only 1 hour of treatment): > 3 log; clearing zone on agar overlay plates [3]: yielded a clearing zone (halo)
